Common to all, as to assay: peptide SPOT array, c-Myc-tagged receptor at 1 uM or 100 nM, anti-c-Myc-Cy3
For one experiment, the target named is Bcl-xL, Q07817.
Another experiment deals with T1, Bfl-1, Q16548.
T1 chain: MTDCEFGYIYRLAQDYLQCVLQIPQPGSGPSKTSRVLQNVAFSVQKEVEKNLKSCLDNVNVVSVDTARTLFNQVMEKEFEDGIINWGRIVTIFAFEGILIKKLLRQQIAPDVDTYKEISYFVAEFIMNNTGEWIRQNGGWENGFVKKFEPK

The target of another experiment is T2, Mcl-1, Q07820.
T2 chain: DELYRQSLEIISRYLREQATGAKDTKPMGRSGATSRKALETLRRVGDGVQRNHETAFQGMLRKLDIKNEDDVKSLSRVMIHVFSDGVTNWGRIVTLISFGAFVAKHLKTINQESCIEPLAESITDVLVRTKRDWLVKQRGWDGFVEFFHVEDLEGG

Bcl-xL, Q07817, sequence (Q07817 1-209): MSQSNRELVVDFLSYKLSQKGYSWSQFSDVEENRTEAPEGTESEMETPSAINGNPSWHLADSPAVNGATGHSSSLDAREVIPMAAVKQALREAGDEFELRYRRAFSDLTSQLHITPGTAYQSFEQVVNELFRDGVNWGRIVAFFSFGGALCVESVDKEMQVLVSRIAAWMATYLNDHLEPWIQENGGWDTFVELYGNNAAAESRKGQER

DDMFEPHSWNDKELSDDCFQQWGVRP [PRCP]: the SPOT signal as a fraction of Bim BH3's signal on the same receptor and array in the experiment with Bcl-xL, Q07817 amounted to 0.07; with Bfl-1, Q16548 it was 0.05; in the experiment with Mcl-1, Q07820, 0.04.

Turning to WLKGDILGEKLVNLLDCLCNEDLESR [RNF160], the SPOT signal as a fraction of Bim BH3's signal on the same receptor and array amounted to 0.07 in the experiment with Bcl-xL, Q07817; 0.05 with Bfl-1, Q16548; 0.06 with Mcl-1, Q07820.

As for PDKRLTLSQIDQYVADNFPFYNKSKA, the SPOT signal as a fraction of Bim BH3's signal on the same receptor and array in the experiment with Bcl-xL, Q07817 is 0.84; in the experiment with Bfl-1, Q16548, 0.42; with Mcl-1, Q07820 it was 0.39.

In the case of WTLFVYTKGNFRMILDDLVNSYHLLL [RBL1], the SPOT signal as a fraction of Bim BH3's signal on the same receptor and array with Bcl-xL, Q07817 worked out at 0.09; with Bfl-1, Q16548, 0.13; with Mcl-1, Q07820, 0.11.

In the case of RKDAELLCWDDRQSGYPLWSLGREVT [WRAP53], the SPOT signal as a fraction of Bim BH3's signal on the same receptor and array was 0.06 with Bcl-xL, Q07817; 0.04 in the experiment with Bfl-1, Q16548; 0.04 with Mcl-1, Q07820.

For the molecule VHKHSRLAEVLQLGLDILPQYKQEAP [KCNH1], the SPOT signal as a fraction of Bim BH3's signal on the same receptor and array in the experiment with Bcl-xL, Q07817 amounted to 0.12; in the experiment with Bfl-1, Q16548, 0.07; in the experiment with Mcl-1, Q07820 it was 0.14.

PDKRLTLSQIYQYVADNFPFYNKSKA: the SPOT signal as a fraction of Bim BH3's signal on the same receptor and array in the experiment with Bcl-xL, Q07817 was 1.74; in the experiment with Bfl-1, Q16548 it was 0.56; with Mcl-1, Q07820, 0.56.

Turning to PVESSWIAPELRLQSDDILPLGKDSG [DHX30], the SPOT signal as a fraction of Bim BH3's signal on the same receptor and array amounted to 0.05 with Bcl-xL, Q07817; 0.04 with Bfl-1, Q16548; 0.04 with Mcl-1, Q07820.

As for LNLLMISVAFDRVIGDQLEKLCDSLL [SLC38A8], the SPOT signal as a fraction of Bim BH3's signal on the same receptor and array with Bcl-xL, Q07817 was 0.05; with Bfl-1, Q16548 it was 0.04; in the experiment with Mcl-1, Q07820 it was 0.04.

For ERLKGQLCDVDLIVGDQKFRAHKNVL [ZNF295], the SPOT signal as a fraction of Bim BH3's signal on the same receptor and array with Bcl-xL, Q07817 is 0.16; in the experiment with Bfl-1, Q16548, 0.07; with Mcl-1, Q07820, 0.08.

For LDFTFVCPTEIIAFGDRLEEFRSINT, the SPOT signal as a fraction of Bim BH3's signal on the same receptor and array in the experiment with Bcl-xL, Q07817 was found to be 0.06; with Bfl-1, Q16548, 0.03; with Mcl-1, Q07820 it was 0.04.

For the molecule LSIIYTLVEIFQNIGDTNLADFTAGL [SLC26A4], the SPOT signal as a fraction of Bim BH3's signal on the same receptor and array is 0.06 in the experiment with Bcl-xL, Q07817; 0.03 with Bfl-1, Q16548; 0.07 with Mcl-1, Q07820.

As to LTETSLISGNLHRIGDITSCSVLWLN [FBXW5], the SPOT signal as a fraction of Bim BH3's signal on the same receptor and array worked out at 0.06 with Bcl-xL, Q07817; 0.04 with Bfl-1, Q16548; 0.04 with Mcl-1, Q07820.

Regarding SFLSAHCASHLAWFLDSLTSLSQRLQ [TMEM214], the SPOT signal as a fraction of Bim BH3's signal on the same receptor and array in the experiment with Bcl-xL, Q07817 stood at 0.08; with Bfl-1, Q16548 it was 0.08; in the experiment with Mcl-1, Q07820, 0.07.

For LDFTFVCPTEDIAFGDRLEEFRSINT, the SPOT signal as a fraction of Bim BH3's signal on the same receptor and array is 0.06 with Bcl-xL, Q07817; 0.03 in the experiment with Bfl-1, Q16548; 0.04 in the experiment with Mcl-1, Q07820.

With AELEVECATQLRRFLDKLNFRQKLLN [PMAIP1], the SPOT signal as a fraction of Bim BH3's signal on the same receptor and array in the experiment with Bcl-xL, Q07817 came out at 0.2; in the experiment with Bfl-1, Q16548, 0.17; with Mcl-1, Q07820, 0.1.

Consider RMIVDCVSSHLKKTGDGAKTFIIFLC [BBS10], for which the SPOT signal as a fraction of Bim BH3's signal on the same receptor and array with Bcl-xL, Q07817 is 1; in the experiment with Bfl-1, Q16548 it was 0.36; with Mcl-1, Q07820 it was 0.17.

In the case of FKAWGKFGGADCRYADEMKEIQERQR [PURB], the SPOT signal as a fraction of Bim BH3's signal on the same receptor and array with Bcl-xL, Q07817 was 0.66; in the experiment with Bfl-1, Q16548 it was 0.76; in the experiment with Mcl-1, Q07820, 0.83.

Take TETKATFGVHDKIVGDWTERFRDLLL [NOX4]: the SPOT signal as a fraction of Bim BH3's signal on the same receptor and array in the experiment with Bcl-xL, Q07817 was determined as 0.05; with Bfl-1, Q16548, 0.07; with Mcl-1, Q07820 it was 0.05.

For the molecule MSILTIASAVLEFVLDGIYNNTMGHV [TAP1], the SPOT signal as a fraction of Bim BH3's signal on the same receptor and array worked out at 0.06 with Bcl-xL, Q07817; 0.04 with Bfl-1, Q16548; 0.04 with Mcl-1, Q07820.

In the case of NDDTPWIARTDDNLADELTAILSAPA [GBP6], the SPOT signal as a fraction of Bim BH3's signal on the same receptor and array with Bcl-xL, Q07817 turned out to be 0.04; with Bfl-1, Q16548, 0.03; with Mcl-1, Q07820, 0.04.

RLRQLGVAKKFGVLLDNFKGKRIVLV [PPAT]: the SPOT signal as a fraction of Bim BH3's signal on the same receptor and array in the experiment with Bcl-xL, Q07817 is 1.27; with Bfl-1, Q16548, 0.69; with Mcl-1, Q07820, 0.93.
